# Measurements taken from the Human Domainome abundance scans (Beltran et al. 2025).
# ± gives the uncertainty stated by the source.
# B1: Integrator complex subunit 12, residues 155 to 213; numbered along this chain, Q96CB8 (parent)
# chain: AMEMGLACVVCRQMMVASGNQLVECQECHNLYHRDCHKPQVTDKEANDPRLVWYCARCT
# Variants of: B1
# Assay: abundance fitness (aPCA) (normalised: wild type 0, dead -1); higher = more abundant; growth selection in yeast, the domain comes from the species named
# Conditions: Homo sapiens
row,Variant,abundance fitness
1,AMEMGLACVVGRQMMVASGNQLVECQECHNLYHRDCHKPQVTDKEANDPRLVWYCARCT,-0.958 ± 0.06
2,AMEMGLACVVLRQMMVASGNQLVECQECHNLYHRDCHKPQVTDKEANDPRLVWYCARCT,-1.09 ± 0.057
3,AMEMGLACVVTRQMMVASGNQLVECQECHNLYHRDCHKPQVTDKEANDPRLVWYCARCT,-0.933 ± 0.061
4,AMEMGLACVVVRQMMVASGNQLVECQECHNLYHRDCHKPQVTDKEANDPRLVWYCARCT,-1.06 ± 0.07
5,AMEMGLACVVCRGMMVASGNQLVECQECHNLYHRDCHKPQVTDKEANDPRLVWYCARCT,-0.17 ± 0.044
6,AMEMGLACVVCRWMMVASGNQLVECQECHNLYHRDCHKPQVTDKEANDPRLVWYCARCT,-0.758 ± 0.07
7,AMEMGLACVVCRKMMVASGNQLVECQECHNLYHRDCHKPQVTDKEANDPRLVWYCARCT,0.011 ± 0.056
8,AMEMGLACVVCRNMMVASGNQLVECQECHNLYHRDCHKPQVTDKEANDPRLVWYCARCT,-0.024 ± 0.036
9,AMEMGLACVVCREMMVASGNQLVECQECHNLYHRDCHKPQVTDKEANDPRLVWYCARCT,-0.074 ± 0.087
10,AMEMGLACVVCRCMMVASGNQLVECQECHNLYHRDCHKPQVTDKEANDPRLVWYCARCT,-0.125 ± 0.038
11,AMEMGLACVVCRIMMVASGNQLVECQECHNLYHRDCHKPQVTDKEANDPRLVWYCARCT,-0.147 ± 0.035
12,AMEMGLACVVCRHMMVASGNQLVECQECHNLYHRDCHKPQVTDKEANDPRLVWYCARCT,-0.043 ± 0.039
13,AMEMGLACVVCRSMMVASGNQLVECQECHNLYHRDCHKPQVTDKEANDPRLVWYCARCT,-0.033 ± 0.032
14,AMEMGLACVVCRLMMVASGNQLVECQECHNLYHRDCHKPQVTDKEANDPRLVWYCARCT,-0.088 ± 0.033
15,AMEMGLACVVCRRMMVASGNQLVECQECHNLYHRDCHKPQVTDKEANDPRLVWYCARCT,-0.2 ± 0.043
16,AMEMGLACVVCRFMMVASGNQLVECQECHNLYHRDCHKPQVTDKEANDPRLVWYCARCT,-0.354 ± 0.035
17,AMEMGLACVVCRMMMVASGNQLVECQECHNLYHRDCHKPQVTDKEANDPRLVWYCARCT,-0.132 ± 0.05
18,AMEMGLACVVCRVMMVASGNQLVECQECHNLYHRDCHKPQVTDKEANDPRLVWYCARCT,-0.114 ± 0.041
19,AMEMGLACVVCRDMMVASGNQLVECQECHNLYHRDCHKPQVTDKEANDPRLVWYCARCT,-0.075 ± 0.046
20,AMEMGLACVVCRYMMVASGNQLVECQECHNLYHRDCHKPQVTDKEANDPRLVWYCARCT,-0.382 ± 0.036
21,AMEMGLACVVCRTMMVASGNQLVECQECHNLYHRDCHKPQVTDKEANDPRLVWYCARCT,-0.089 ± 0.039
22,AMEMGLACVVCRAMMVASGNQLVECQECHNLYHRDCHKPQVTDKEANDPRLVWYCARCT,-0.088 ± 0.047
23,AMEMGLACVICRQMMVASGNQLVECQECHNLYHRDCHKPQVTDKEANDPRLVWYCARCT,-0.047 ± 0.032

row,Variant,abundance fitness
1,AMEMGLACVNCRQMMVASGNQLVECQECHNLYHRDCHKPQVTDKEANDPRLVWYCARCT,-0.191 ± 0.033
2,AMEMGLACVRCRQMMVASGNQLVECQECHNLYHRDCHKPQVTDKEANDPRLVWYCARCT,-0.347 ± 0.039
3,AMEMGLACVKCRQMMVASGNQLVECQECHNLYHRDCHKPQVTDKEANDPRLVWYCARCT,-0.242 ± 0.05
4,AMEMGLACVMCRQMMVASGNQLVECQECHNLYHRDCHKPQVTDKEANDPRLVWYCARCT,-0.153 ± 0.06
5,AMEMGLACVPCRQMMVASGNQLVECQECHNLYHRDCHKPQVTDKEANDPRLVWYCARCT,-0.627 ± 0.048
6,AMEMGLACVYCRQMMVASGNQLVECQECHNLYHRDCHKPQVTDKEANDPRLVWYCARCT,-0.202 ± 0.035
7,AMEMGLACVTCRQMMVASGNQLVECQECHNLYHRDCHKPQVTDKEANDPRLVWYCARCT,-0.46 ± 0.04
8,AMEMGLACVSCRQMMVASGNQLVECQECHNLYHRDCHKPQVTDKEANDPRLVWYCARCT,-0.401 ± 0.034
9,AMEMGLACVWCRQMMVASGNQLVECQECHNLYHRDCHKPQVTDKEANDPRLVWYCARCT,-0.381 ± 0.067
10,AMEMGLACVQCRQMMVASGNQLVECQECHNLYHRDCHKPQVTDKEANDPRLVWYCARCT,-0.157 ± 0.061
11,AMEMGLACVVCRQMLVASGNQLVECQECHNLYHRDCHKPQVTDKEANDPRLVWYCARCT,-0.013 ± 0.036
12,AMEMGLACVVCRQMDVASGNQLVECQECHNLYHRDCHKPQVTDKEANDPRLVWYCARCT,0.09 ± 0.035
13,AMEMGLACVVCRQMEVASGNQLVECQECHNLYHRDCHKPQVTDKEANDPRLVWYCARCT,-0.081 ± 0.07
14,AMEMGLACVVCRQMAVASGNQLVECQECHNLYHRDCHKPQVTDKEANDPRLVWYCARCT,0.067 ± 0.037
15,AMEMGLACVVCRQMPVASGNQLVECQECHNLYHRDCHKPQVTDKEANDPRLVWYCARCT,0.084 ± 0.046
16,AMEMGLACVVCRQMNVASGNQLVECQECHNLYHRDCHKPQVTDKEANDPRLVWYCARCT,0.063 ± 0.034
17,AMEMGLACVVCRQMQVASGNQLVECQECHNLYHRDCHKPQVTDKEANDPRLVWYCARCT,0.115 ± 0.071
18,AMEMGLACVVCRQMKVASGNQLVECQECHNLYHRDCHKPQVTDKEANDPRLVWYCARCT,0.094 ± 0.064
19,AMEMGLACVVCRQMFVASGNQLVECQECHNLYHRDCHKPQVTDKEANDPRLVWYCARCT,-0.053 ± 0.033
20,AMEMGLACVVCRQMRVASGNQLVECQECHNLYHRDCHKPQVTDKEANDPRLVWYCARCT,0.023 ± 0.032
21,AMEMGLACVVCRQMHVASGNQLVECQECHNLYHRDCHKPQVTDKEANDPRLVWYCARCT,0.083 ± 0.042
22,AMEMGLACVVCRQMIVASGNQLVECQECHNLYHRDCHKPQVTDKEANDPRLVWYCARCT,0.028 ± 0.034
